# From the RNAGym collection of RNA variant scans (doi:10.1093/molbev/msab373)
# B1: Azoarcus group I ribozyme (parent)
# chain: GUGCCUUGCGCCGGGAAACCACGCAAGGGAUGGUGUCAAAUUCGGCGAAACCUAAGCGCCCGCCCGGGCGUAUGGCAACGCCGAGCCAAGCUUCGGCGCCUGCGCCGAUGAAGGUGUAGAGACUAGACGGCACCCACCUAAGGCAAACGCUAUGGUGAAGGCAUAGUCCAGGGAGUGGCGAAAGUCACACAAACCGG
# Variants of: B1
# Test: reverse-splicing fitness (ratio to wild type); higher = more active; in vitro selection; Mg2+ level not given
# Summary of the method: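 An in vitro group I ribozyme library with randomized positions was T7-transcribed and gel-purified. In triplicate, 10 pmol RNA in EPPS pH 7.5 was reacted with 50 pmoles of a 30-nt RNA substrate for 1 h at 37 °C across several added MgCl2 levels (1–48 mM), then stopped with EDTA. Products were reverse transcribed from a substrate-complementary primer, PCR-amplified and sequenced (HiSeq 4000). Fitness is a variant's read proportion after selection over that before, normalised to wild type.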
row,Variant,reverse-splicing fitness
1,GUGCCUUGCGCCGGGAAACCACGCAAGGGAUGGUGUCAAAUUCGGCGAAACCUAAGCGCCCGCCCGGGCGUAUGGCAACGCCGAGCCAAGCUUCGGCGCCUGCGCCGAUGCAGGUGUAGGGACUAGACGGCACCCACCUAAGGCCAACGGUAUGGUGAAGGCAUAGUCCAGGGAGUGGCGAAAGUCACACAAACCGG,0.0219
2,GUGCCUUGCGCCGGGAAACCACGCAAGGGAUGGUGUCAAAUUCGGCGAAACCUAAGCGCCCGCCCGGGCGUAUGGCAACGCCGAGCCAAGCUUCGGCGCCUGCGCCGAUGCAGGUGUAGGGACUAGACGGCACCCACCUAAGGCCAACGUUAUGGUGAAGGCAUAGUCCAGGGAGUGGCGAAAGUCACACAAACCGG,0.0418
3,GUGCCUUGCGCCGGGAAACCACGCAAGGGAUGGUGUCAAAUUCGGCGAAACCUAAGCGCCCGCCCGGGCGUAUGGCAACGCCGAGCCAAGCUUCGGCGCCUGCGCCGAUGCAGGUGUAGGGACUAGACGGCACCCACCUAAGGCCAACGUUAUGGUGAAGGCAUAGUCGAGGGAGGGGCGAAAGUCACACAAACCGG,0.00474
4,GUGCCUUGCGCCGGGAAACCACGCAAGGGAUGGUGUCAAAUUCGGCGAAACCUAAGCGCCCGCCCGGGCGUAUGGCAACGCCGAGCCAAGCUUCGGCGCCUGCGCCGAUGCAGGUGUAGGGACUAGACGGCACCCACCUAAGGCCAACGUUAUGGUGAAGGCAUAGUCGAGGGAGAGGCGAAAGUCACACAAACCGG,0.0253
5,GUGCCUUGCGCCGGGAAACCACGCAAGGGAUGGUGUCAAAUUCGGCGAAACCUAAGCGCCCGCCCGGGCGUAUGGCAACGCCGAGCCAAGCUUCGGCGCCUGCGCCGAUGCAGGUGUAGGGACUAGACGGCACCCACCUAAGGCCAACGUUAUGGUGAAGGCAUAGUCGAGGGAGCGGCGAAAGUCACACAAACCGG,0.0221
6,GUGCCUUGCGCCGGGAAACCACGCAAGGGAUGGUGUCAAAUUCGGCGAAACCUAAGCGCCCGCCCGGGCGUAUGGCAACGCCGAGCCAAGCUUCGGCGCCUGCGCCGAUGCAGGUGUAGGGACUAGACGGCACCCACCUAAGGCCAACGAUAUGGUGAAGGCAUAGUCCAGGGAGCGGCGAAAGUCACACAAACCGG,0.0118
7,GUGCCUUGCGCCGGGAAACCACGCAAGGGAUGGUGUCAAAUUCGGCGAAACCUAAGCGCCCGCCCGGGCGUAUGGCAACGCCGAGCCAAGCUUCGGCGCCUGCGCCGAUGCAGGUGUAGGGACUAGACGGCACCCACCUAAGGCCAACGAUAUGGUGAAGGCAUAGUCCAGGGAGGGGCGAAAGUCACACAAACCGG,0.00357
8,GUGCCUUGCGCCGGGAAACCACGCAAGGGAUGGUGUCAAAUUCGGCGAAACCUAAGCGCCCGCCCGGGCGUAUGGCAACGCCGAGCCAAGCUUCGGCGCCUGCGCCGAUGCAGGUGUAGGGACUAGACGGCACCCACCUAAGGCCAACGAUAUGGUGAAGGCAUAGUCCAGGGAGAGGCGAAAGUCACACAAACCGG,0.0112
9,GUGCCUUGCGCCGGGAAACCACGCAAGGGAUGGUGUCAAAUUCGGCGAAACCUAAGCGCCCGCCCGGGCGUAUGGCAACGCCGAGCCAAGCUUCGGCGCCUGCGCCGAUGCAGGUGUAGGGACUAGACGGCACCCACCUAAGGCCAACGGUAUGGUGAAGGCAUAGUCCAGGGAGCGGCGAAAGUCACACAAACCGG,0.0168
10,GUGCCUUGCGCCGGGAAACCACGCAAGGGAUGGUGUCAAAUUCGGCGAAACCUAAGCGCCCGCCCGGGCGUAUGGCAACGCCGAGCCAAGCUUCGGCGCCUGCGCCGAUGCAGGUGUAGGGACUAGACGGCACCCACCUAAGGCCAACGGUAUGGUGAAGGCAUAGUCCAGGGAGAGGCGAAAGUCACACAAACCGG,0.0112
11,GUGCCUUGCGCCGGGAAACCACGCAAGGGAUGGUGUCAAAUUCGGCGAAACCUAAGCGCCCGCCCGGGCGUAUGGCAACGCCGAGCCAAGCUUCGGCGCCUGCGCCGAUGCAGGUGUAGGGACUAGACGGCACCCACCUAAGGCCAACGGUAUGGUGAAGGCAUAGUCCAGGGAGGGGCGAAAGUCACACAAACCGG,0.00301
12,GUGCCUUGCGCCGGGAAACCACGCAAGGGAUGGUGUCAAAUUCGGCGAAACCUAAGCGCCCGCCCGGGCGUAUGGCAACGCCGAGCCAAGCUUCGGCGCCUGCGCCGAUGCAGGUGUAGGGACUAGACGGCACCCACCUAAGGCCAACGGUAUGGUGAAGGCAUAGUCGAGGGAGGGGCGAAAGUCACACAAACCGG,0.00434
13,GUGCCUUGCGCCGGGAAACCACGCAAGGGAUGGUGUCAAAUUCGGCGAAACCUAAGCGCCCGCCCGGGCGUAUGGCAACGCCGAGCCAAGCUUCGGCGCCUGCGCCGAUGCAGGUGUAGGGACUAGACGGCACCCACCUAAGGCCAACGGUAUGGUGAAGGCAUAGUCGAGGGAGCGGCGAAAGUCACACAAACCGG,0.00609
14,GUGCCUUGCGCCGGGAAACCACGCAAGGGAUGGUGUCAAAUUCGGCGAAACCUAAGCGCCCGCCCGGGCGUAUGGCAACGCCGAGCCAAGCUUCGGCGCCUGCGCCGAUGCAGGUGUAGGGACUAGACGGCACCCACCUAAGGCCAACGGUAUGGUGAAGGCAUAGUCGAGGGAGAGGCGAAAGUCACACAAACCGG,0.00954
15,GUGCCUUGCGCCGGGAAACCACGCAAGGGAUGGUGUCAAAUUCGGCGAAACCUAAGCGCCCGCCCGGGCGUAUGGCAACGCCGAGCCAAGCUUCGGCGCCUGCGCCGAUGCAGGUGUAGGGACUAGACGGCACCCACCUAAGGCCAACGGUAUGGUGAAGGCAUAGUCUAGGGAGAGGCGAAAGUCACACAAACCGG,0.0111
16,GUGCCUUGCGCCGGGAAACCACGCAAGGGAUGGUGUCAAAUUCGGCGAAACCUAAGCGCCCGCCCGGGCGUAUGGCAACGCCGAGCCAAGCUUCGGCGCCUGCGCCGAUGCAGGUGUAGGGACUAGACGGCACCCACCUAAGGCCAACGGUAUGGUGAAGGCAUAGUCUAGGGAGGGGCGAAAGUCACACAAACCGG,0.004
17,GUGCCUUGCGCCGGGAAACCACGCAAGGGAUGGUGUCAAAUUCGGCGAAACCUAAGCGCCCGCCCGGGCGUAUGGCAACGCCGAGCCAAGCUUCGGCGCCUGCGCCGAUGCAGGUGUAGGGACUAGACGGCACCCACCUAAGGCCAACGGUAUGGUGAAGGCAUAGUCUAGGGAGCGGCGAAAGUCACACAAACCGG,0.013
18,GUGCCUUGCGCCGGGAAACCACGCAAGGGAUGGUGUCAAAUUCGGCGAAACCUAAGCGCCCGCCCGGGCGUAUGGCAACGCCGAGCCAAGCUUCGGCGCCUGCGCCGAUGCAGGUGUAGGGACUAGACGGCACCCACCUAAGGCCAACGAUAUGGUGAAGGCAUAGUCUAGGGAGCGGCGAAAGUCACACAAACCGG,0.00924
19,GUGCCUUGCGCCGGGAAACCACGCAAGGGAUGGUGUCAAAUUCGGCGAAACCUAAGCGCCCGCCCGGGCGUAUGGCAACGCCGAGCCAAGCUUCGGCGCCUGCGCCGAUGCAGGUGUAGGGACUAGACGGCACCCACCUAAGGCCAACGAUAUGGUGAAGGCAUAGUCUAGGGAGGGGCGAAAGUCACACAAACCGG,0.00392
20,GUGCCUUGCGCCGGGAAACCACGCAAGGGAUGGUGUCAAAUUCGGCGAAACCUAAGCGCCCGCCCGGGCGUAUGGCAACGCCGAGCCAAGCUUCGGCGCCUGCGCCGAUGCAGGUGUAGGGACUAGACGGCACCCACCUAAGGCCAACGGUAUGGUGAAGGCAUAGUCUAGGGAGUGGCGAAAGUCACACAAACCGG,0.0248
21,GUGCCUUGCGCCGGGAAACCACGCAAGGGAUGGUGUCAAAUUCGGCGAAACCUAAGCGCCCGCCCGGGCGUAUGGCAACGCCGAGCCAAGCUUCGGCGCCUGCGCCGAUGCAGGUGUAGGGACUAGACGGCACCCACCUAAGGCCAACGGUAUGGUGAAGGCAUAGUCGAGGGAGUGGCGAAAGUCACACAAACCGG,0.0238
22,GUGCCUUGCGCCGGGAAACCACGCAAGGGAUGGUGUCAAAUUCGGCGAAACCUAAGCGCCCGCCCGGGCGUAUGGCAACGCCGAGCCAAGCUUCGGCGCCUGCGCCGAUGCAGGUGUAGGGACUAGACGGCACCCACCUAAGGCCAACGGUAUGGUGAAGGCAUAGUCAAGGGAGUGGCGAAAGUCACACAAACCGG,0.015
23,GUGCCUUGCGCCGGGAAACCACGCAAGGGAUGGUGUCAAAUUCGGCGAAACCUAAGCGCCCGCCCGGGCGUAUGGCAACGCCGAGCCAAGCUUCGGCGCCUGCGCCGAUGCAGGUGUAGGGACUAGACGGCACCCACCUAAGGCCAACGUUAUGGUGAAGGCAUAGUCAAGGGAGUGGCGAAAGUCACACAAACCGG,0.0284
24,GUGCCUUGCGCCGGGAAACCACGCAAGGGAUGGUGUCAAAUUCGGCGAAACCUAAGCGCCCGCCCGGGCGUAUGGCAACGCCGAGCCAAGCUUCGGCGCCUGCGCCGAUGCAGGUGUAGGGACUAGACGGCACCCACCUAAGGCCAACGUUAUGGUGAAGGCAUAGUCGAGGGAGUGGCGAAAGUCACACAAACCGG,0.0492
25,GUGCCUUGCGCCGGGAAACCACGCAAGGGAUGGUGUCAAAUUCGGCGAAACCUAAGCGCCCGCCCGGGCGUAUGGCAACGCCGAGCCAAGCUUCGGCGCCUGCGCCGAUGCAGGUGUAGGGACUAGACGGCACCCACCUAAGGCCAACGGUAUGGUGAAGGCAUAGUCAAGGGAGGGGCGAAAGUCACACAAACCGG,0.0045
26,GUGCCUUGCGCCGGGAAACCACGCAAGGGAUGGUGUCAAAUUCGGCGAAACCUAAGCGCCCGCCCGGGCGUAUGGCAACGCCGAGCCAAGCUUCGGCGCCUGCGCCGAUGCAGGUGUAGGGACUAGACGGCACCCACCUAAGGCCAACGGUAUGGUGAAGGCAUAGUCAAGGGAGCGGCGAAAGUCACACAAACCGG,0.00838
27,GUGCCUUGCGCCGGGAAACCACGCAAGGGAUGGUGUCAAAUUCGGCGAAACCUAAGCGCCCGCCCGGGCGUAUGGCAACGCCGAGCCAAGCUUCGGCGCCUGCGCCGAUGCAGGUGUAGGGACUAGACGGCACCCACCUAAGGCCAACGGUAUGGUGAAGGCAUAGUCAAGGGAGAGGCGAAAGUCACACAAACCGG,0.00964
28,GUGCCUUGCGCCGGGAAACCACGCAAGGGAUGGUGUCAAAUUCGGCGAAACCUAAGCGCCCGCCCGGGCGUAUGGCAACGCCGAGCCAAGCUUCGGCGCCUGCGCCGAUGCAGGUGUAGGGACUAGACGGCACCCACCUAAGGCCAACGUUAUGGUGAAGGCAUAGUCAAGGGAGGGGCGAAAGUCACACAAACCGG,0.00455
29,GUGCCUUGCGCCGGGAAACCACGCAAGGGAUGGUGUCAAAUUCGGCGAAACCUAAGCGCCCGCCCGGGCGUAUGGCAACGCCGAGCCAAGCUUCGGCGCCUGCGCCGAUGCAGGUGUAGGGACUAGACGGCACCCACCUAAGGCCAACGUUAUGGUGAAGGCAUAGUCAAGGGAGCGGCGAAAGUCACACAAACCGG,0.011
30,GUGCCUUGCGCCGGGAAACCACGCAAGGGAUGGUGUCAAAUUCGGCGAAACCUAAGCGCCCGCCCGGGCGUAUGGCAACGCCGAGCCAAGCUUCGGCGCCUGCGCCGAUGCAGGUGUAGGGACUAGACGGCACCCACCUAAGGCCAACGUUAUGGUGAAGGCAUAGUCAAGGGAGAGGCGAAAGUCACACAAACCGG,0.0104
